{"source": "patent US20040077845A1", "about": "“Modifier” (priority 2001, published 2004)", "key": {"bovine serum albumin": {"molecular_target": "T1, bovine serum albumin (Bos taurus, UniProt P02769)", "T1 construct": "purchased Sigma A0281", "T1 sequence (P02769 25-607)": "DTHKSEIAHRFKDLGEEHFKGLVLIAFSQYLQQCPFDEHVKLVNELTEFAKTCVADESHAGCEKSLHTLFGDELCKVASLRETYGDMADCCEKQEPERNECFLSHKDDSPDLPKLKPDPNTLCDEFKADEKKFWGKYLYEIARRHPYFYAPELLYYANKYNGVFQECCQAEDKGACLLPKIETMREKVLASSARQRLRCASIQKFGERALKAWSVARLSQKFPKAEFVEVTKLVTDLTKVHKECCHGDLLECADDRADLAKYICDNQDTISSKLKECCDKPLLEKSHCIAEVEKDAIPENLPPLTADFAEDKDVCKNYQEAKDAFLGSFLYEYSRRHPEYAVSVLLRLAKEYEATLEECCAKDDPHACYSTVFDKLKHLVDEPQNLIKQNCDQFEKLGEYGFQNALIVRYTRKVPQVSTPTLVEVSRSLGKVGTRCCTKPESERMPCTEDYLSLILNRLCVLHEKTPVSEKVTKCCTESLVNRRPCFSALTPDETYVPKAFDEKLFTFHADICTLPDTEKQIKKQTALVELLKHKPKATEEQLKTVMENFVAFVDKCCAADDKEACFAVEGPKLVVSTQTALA", "assay": "galactose content of the protein modified with agarooligosaccharides (hydrolysis, 2-aminopyridine labelling, HPLC)", "type": "biochemical", "conditions": "reacted with agarooligosaccharides in PBS pH 7.2, 37° C., 24 hours", "protocol": "A solution containing the agarooligosaccharides as described in Example 1-(1) at a concentration of 100 mg/ml and a solution containing bovine serum albumin (Sigma, A0281) at a concentration of 11.1 mg/ml in PBS (pH 7.2) were mixed at a ratio of 1:9. The mixture was reacted at 37° C. for 24 hours to obtain a modification product of bovine serum albumin.\nIn order to confirm that the agarooligosaccharides were attached to the proteins, the modification products of the proteins were dialyzed to remove free agarooligosaccharides, and only high molecular weight fractions were collected by HPLC. HPLC was carried out as follows.\nThe protein concentrations in the separated fractions were determined by measuring the absorbances at 280 nm, and fractions containing the proteins were collected. As a control, unmodified counterparts for both of the proteins were also separated under the same conditions. Next, the galactose contents in the collected protein fractions were measured. […] The reducing ends of the resulting monosaccharides were fluorescence-labeled with 2-aminopyridine using GlycoTAG and GlycoTAG Reagent kit (both from Takara Shuzo). The sugar compositions were analyzed according to a conventional method by HPLC (Agric. Biol. Chem. 55, 283-284 (1991)) to determine the galactose contents in the respective protein fractions. […]"}, "[1]": {"assay": "solubility of lyophilized modification products in water or PBS", "type": "physicochemical", "conditions": "dissolved in water or PBS", "excerpt": "The modification products of bovine serum albumin and human immunoglobulin G separated using HPLC as described in Example 2 were adequately dialyzed against water and lyophilized. The lyophilized modification products and lyophilized unmodified counterparts for both of the proteins were similarly dissolved in water or PBS."}}}
{"substance": "modification product of bovine serum albumin: bovine serum albumin reacted with the agarooligosaccharides in PBS at 37° C. for 24 hours", "values": [{"measurement": "molecules of galactose attached to one molecule of the modification product", "setting": "bovine serum albumin", "result": "eight"}, {"measurement": "solubility compared with unmodified counterparts", "setting": "[1]", "result": "superior to that of the unmodified counterparts"}]}
